Assay results from patent US6576419.

Target: anti-hCG monoclonal antibody from Organon Teknika, Boxtel, the Netherlands
Test: competition: hCG displaces FpepT from anti-hCG Mab, fluorescence at 590 nm, fit to exchange model (K1)

“human chorionic gonadotrophin (hCG) (from UniProt P01215 25-116; P0DN86 21-165) (ligand)” was tested, and the Kd was 490 pM.
